Measurements taken from publication doi:10.1101/2022.12.06.519343.

Columns and labels:
[1] = target: T1, GFP-His6::sExu531 (Drosophila melanogaster); assay: SEC; conditions: remark: other sources report otherwise
T1 chain: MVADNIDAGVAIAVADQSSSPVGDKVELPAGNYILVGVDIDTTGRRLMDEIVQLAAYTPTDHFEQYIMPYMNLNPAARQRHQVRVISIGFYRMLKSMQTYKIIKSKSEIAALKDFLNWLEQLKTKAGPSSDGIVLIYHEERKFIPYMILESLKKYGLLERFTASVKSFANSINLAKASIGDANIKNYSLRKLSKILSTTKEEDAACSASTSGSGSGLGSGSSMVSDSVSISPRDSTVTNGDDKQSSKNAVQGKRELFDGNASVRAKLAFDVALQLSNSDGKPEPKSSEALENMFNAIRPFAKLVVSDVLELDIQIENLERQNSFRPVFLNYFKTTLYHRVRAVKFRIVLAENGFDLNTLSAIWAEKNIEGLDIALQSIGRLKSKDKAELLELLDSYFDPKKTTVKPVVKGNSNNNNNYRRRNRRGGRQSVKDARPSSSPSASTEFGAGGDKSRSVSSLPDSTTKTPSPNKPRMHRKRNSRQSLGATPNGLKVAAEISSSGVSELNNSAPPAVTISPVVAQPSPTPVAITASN

[2] = target: T1, GFP-His6::sExu531 (Drosophila …); assay: SEC; conditions: remark: other sources report otherwise

stoichiometry N [1]: > 3
stoichiometry N [2]: 3
B1: GFP-His6::sExu531 (natural protein)
chain: MVADNIDAGVAIAVADQSSSPVGDKVELPAGNYILVGVDIDTTGRRLMDEIVQLAAYTPTDHFEQYIMPYMNLNPAARQRHQVRVISIGFYRMLKSMQTYKIIKSKSEIAALKDFLNWLEQLKTKAGPSSDGIVLIYHEERKFIPYMILESLKKYGLLERFTASVKSFANSINLAKASIGDANIKNYSLRKLSKILSTTKEEDAACSASTSGSGSGLGSGSSMVSDSVSISPRDSTVTNGDDKQSSKNAVQGKRELFDGNASVRAKLAFDVALQLSNSDGKPEPKSSEALENMFNAIRPFAKLVVSDVLELDIQIENLERQNSFRPVFLNYFKTTLYHRVRAVKFRIVLAENGFDLNTLSAIWAEKNIEGLDIALQSIGRLKSKDKAELLELLDSYFDPKKTTVKPVVKGNSNNNNNYRRRNRRGGRQSVKDARPSSSPSASTEFGAGGDKSRSVSSLPDSTTKTPSPNKPRMHRKRNSRQSLGATPNGLKVAAEISSSGVSELNNSAPPAVTISPVVAQPSPTPVAITASN
